Kd, koff and kon data for four molecules are collected here from publication PMC4581524 (Journal of cellular biochemistry, 2015).

The target of this assay is T1, monomeric RANK (UniProt O35305 31-214).
T1 sequence (looked up): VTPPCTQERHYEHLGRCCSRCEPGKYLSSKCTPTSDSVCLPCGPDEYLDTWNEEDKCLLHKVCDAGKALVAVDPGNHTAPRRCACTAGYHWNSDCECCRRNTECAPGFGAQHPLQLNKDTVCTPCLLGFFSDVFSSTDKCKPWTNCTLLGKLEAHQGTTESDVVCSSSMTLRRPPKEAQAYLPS
Put plainly: SPR. Background: Surface plasmon resonance follows binding to a sensor surface in real time, without labels.

B1: RANKL K194E (ligand)
chain: KPEAQPFAHLTINAASIPSGSHKVTLSSWYHDRGWAEISNMTLSNGKLRVNQDGFYYLYANISFRHHETSGSVPTDYLQLMVYVVKTSEKIPSSHNLMKGGSTKNWSGNSEFHFYSINVGGFFKLRAGEEISIQVSNPSLLDPDQDATYFGAFKVQDID
modifications: Homotrimer; limits by convention (mouse RANKL ectodomain core). Species inferred: the printed numbering fits mouse
As a reminder, the Kd is a measure of binding affinity in units of concentration. A low value points to higher affinity. The term koff denotes the first-order rate constant of dissociation. Low values mean slow dissociation, high ones fast dissociation. For orientation: kon means the second-order rate constant of association. Read a high kon as faster complex formation. Take B1: binding was characterised by a dissociation constant (Kd) of 899 nM, the koff was 0.101 s⁻¹ and the kon came to 113000 M⁻¹ s⁻¹.

B2: RANKL K194E/Q236H (ligand)
chain: KPEAQPFAHLTINAASIPSGSHKVTLSSWYHDRGWAEISNMTLSNGKLRVNQDGFYYLYANISFRHHETSGSVPTDYLHLMVYVVKTSEKIPSSHNLMKGGSTKNWSGNSEFHFYSINVGGFFKLRAGEEISIQVSNPSLLDPDQDATYFGAFKVQDID
modifications: Homotrimer; limits by convention (mouse RANKL ectodomain core)
For B2, the Kd came to 67 nM, the off-rate constant (koff) stood at 0.017 s⁻¹ and the on-rate (kon) was 174000 M⁻¹ s⁻¹.

B3: RANKL Q236H (ligand)
chain: KPEAQPFAHLTINAASIPSGSHKVTLSSWYHDRGWAKISNMTLSNGKLRVNQDGFYYLYANISFRHHETSGSVPTDYLHLMVYVVKTSEKIPSSHNLMKGGSTKNWSGNSEFHFYSINVGGFFKLRAGEEISIQVSNPSLLDPDQDATYFGAFKVQDID
modifications: Homotrimer; limits by convention (mouse RANKL ectodomain core)
B3 displayed an equilibrium dissociation constant (Kd) of 81 nM, a koff of 0.023 s⁻¹ and a kon of 300000 M⁻¹ s⁻¹.

B4: RANKL K194E/Q236H/F269Y (ligand)
chain: KPEAQPFAHLTINAASIPSGSHKVTLSSWYHDRGWAEISNMTLSNGKLRVNQDGFYYLYANISFRHHETSGSVPTDYLHLMVYVVKTSEKIPSSHNLMKGGSTKNWSGNSEYHFYSINVGGFFKLRAGEEISIQVSNPSLLDPDQDATYFGAFKVQDID
modifications: Homotrimer; limits by convention (mouse RANKL ectodomain core)
B4: binding was put at a Kd of 29 nM, the dissociation rate constant (koff) worked out at 0.005 s⁻¹ and the kon is 167000 M⁻¹ s⁻¹.
